The text below walks through data of patent publication US20020002277A1, “Inhibitors of platelet activation and recruitment” (priority 1998, published 2002).

Series [1] in a line: Phosphate release assay for ATPase activity. The note with it: for CPM × 10^3 (net counts), ATPase activity in CM: 5 days (Table 3). Type of series: biochemical. How it is done: This example describes an ATPase assay that may be used to track enzyme activity. Samples (approximately 100 μl of either concentrated CM or purified polypeptide) are combined with 20 μl of 10X assay buffer (200 mM HEPES, 1.2 M NaCl, 50 mM KCl, 15 mM CaCl2, 15 mM MgCl2 and 3 mM ATP) and sterile water is added to a final volume of 200 μl. Radiolabeled ATP (0.8 μCi γ [^32P] ATP; Amersham, Arlington Heights, Ill.) is added and the mixture incubated for 20 minutes at 37° C. Stop mix (0.5 ml of 20% activated charcoal/1 M HCl) is added and the reaction is placed on ice for 10 minutes. After centrifugation (14K rpm for 10 minutes), the supernatant is assayed for free ^32P using a scintillation counter. Data are expressed as raw counts or net counts, or as picomoles of ATP degraded per minute.
The transfections were repeated and the CM (10, 20 and 30 μL, unconcentrated) was assayed essentially as described in Example 7. […] ATPase levels in CM from COS-1 cells transfected with pIL2LFlagSolCD39 increased with time in culture over at least 4 days post-transfection.
To determine whether activity was affected by removal of the N-terminal FLAG® tag, COS-1 cells were transfected with pIL2LFlagSolCD39 and pIL2LSolCD39 and supernatants (sups) were harvested after 5 days. Samples of 10, 20 and 30 μL of 1x sups were assayed for ATPase activity as described in Example 7.
The expression of Trim1 and Trim2 constructs was analyzed in COS-1 cells cultured in 10 cm plates. After 5 days of incubation, 1x supernatants were examined via ELISA (using anti-CD39) and the phosphate-release assay described in Example 7. […] Expression levels, however, appeared to be reduced 3-4 fold.

Series [2] can be described thus: Phosphate release assay for ATPase activity. Type of series: biochemical. The note with it: 100 μL of 10-fold concentrated CM from COS-1 transfectants; 10X buffer with 30 mM cold ATP.
Series [3] addresses T1, N-terminally FLAG-tagged soluble human CD39 secreted from COS-1 cells transfected with pIL2LFlagSolCD39 (human, UniProt P49961 38-476).
T1 construct: The cleavage site of the leader was not determined for the FLAG-tagged form; In conditioned medium, about 66 kD, glycosylated; also called pIL2LFlagSolCD39 product; tagged soluble CD39
T1 sequence: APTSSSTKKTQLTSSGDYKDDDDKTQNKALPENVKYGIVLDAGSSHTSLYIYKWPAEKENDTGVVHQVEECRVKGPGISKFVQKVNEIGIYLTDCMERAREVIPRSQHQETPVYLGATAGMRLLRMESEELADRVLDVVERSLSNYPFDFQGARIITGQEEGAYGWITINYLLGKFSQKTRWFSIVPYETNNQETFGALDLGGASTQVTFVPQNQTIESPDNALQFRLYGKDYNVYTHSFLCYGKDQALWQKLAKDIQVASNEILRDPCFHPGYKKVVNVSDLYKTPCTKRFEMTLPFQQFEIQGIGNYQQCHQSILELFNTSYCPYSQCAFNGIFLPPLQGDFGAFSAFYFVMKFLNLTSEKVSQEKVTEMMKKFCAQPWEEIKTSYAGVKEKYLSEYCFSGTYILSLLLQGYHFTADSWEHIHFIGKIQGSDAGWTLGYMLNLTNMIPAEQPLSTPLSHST
Nature of the series: immunoaffinity depletion of COS-1 conditioned medium with conjugated Affigel beads, ATPase activity left in the supernatant. How it is done:
CM was collected from COS-1 cells transfected with pIL2LFlagSolCD39, which had been cultured for 5 days in DMEM/F12 supplemented with 5% FCS. A 100 μl aliquot of drained Affigel beads (AG) conjugated with either chicken ovalbumin, antiFLAG mAb, or anti-CD39 mAb was added per ml of CM. […] Each cycle involved continuous gentle agitation of the slurry for 14 h at 4° C. followed by centrifugation to recover supernatants for a subsequent binding cycle or for ATPDase activity measurements.

The test system of the next series is platelets. Nature of the series: Platelet aggregation in platelet-rich plasma from volunteers. Type of series: cell-based, human. The note with it: alanine replacement mutant.
Series [4] in a line: Enzymatic (ATPase and ADPase) activity of site-directed CD39 mutants. Type of series: biochemical. The note with it: alanine replacement in conserved apyrase regions. As to the method:
Mutants were assayed for enzymatic (ATPase and ADPase) and platelet inhibitory (dose-dependent inhibition of platelet aggregation) activities. For one series of mutants, residues within the conserved apyrase regions were replaced with alanine.

Procedure for platelets: After obtaining informed consent from volunteers, blood was collected via plastic tubing using acid citrate-dextrose (38 mM citric acid; 75 mM sodium citrate; 135 mM glucose) as anticoagulant. Where indicated, volunteers had ingested 650 mg acetylsalicylic acid (ASA) 18 h prior to blood donation. Platelet-rich plasma (PRP) was prepared with an initial whole blood centrifugation (200 g, 15 min, 25° C.), and a second centrifugation of the PRP (90 g, 10 min) to eliminate residual erythrocytes and leukocytes. The stock suspension of PRP was maintained at room temperature under 5% CO2-air.
Total volumes were adjusted to 300 μl with TSG buffer (Marcus et al., J. Clin. Invest. 88:1690, 1991; Marcus et al., J. Clin. Invest. 99:1351, 1997). After the 3 min preincubation, platelet agonists (ADP or collagen) were added at the concentrations indicated, and the aggregation response recorded for 4-5 min.

B1: pIL2LFlagSolCD39: N-terminally FLAG-tagged solCD39 with human proinsulin/IL2 leader and 12 mature IL2 residues (SEQ ID NO:25); COS-1 CM (protein)
chain: MALWIDRMQLLSCIALSLALVTNSAPTSSSTKKTQLTSSGDYKDDDDKTQNKALPENVKYGIVLDAGSSHTSLYIYKWPAEKENDTGVVHQVEECRVKGPGISKFVQKVNEIGIYLTDCMERAREVIPRSQHQETPVYLGATAGMRLLRMESEELADRVLDVVERSLSNYPFDFQGARIITGQEEGAYGWITINYLLGKFSQKTRWFSIVPYETNNQETFGALDLGGASTQVTFVPQNQTIESPDNALQFRLYGKDYNVYTHSFLCYGKDQALWQKLAKDIQVASNEILRDPCFHPGYKKVVNVSDLYKTPCTKRFEMTLPFQQFEIQGIGNYQQCHQSILELFNTSYCPYSQCAFNGIFLPPLQGDFGAFSAFYFVMKFLNLTSEKVSQEKVTEMMKKFCAQPWEEIKTSYAGVKEKYLSEYCFSGTYILSLLLQGYHFTADSWEHIHFIGKIQGSDAGWTLGYMLNLTNMIPAEQPLSTPLSHST
modifications: CDS (1)..(1461)
notes: COS-1 CM
B1: the entries for the “CPM × 10^3 (net counts), ATPase activity in CM” value in series [1] (10 μL 1x COS-1 supernatant), in series [1] (20 μL 1x COS-1 supernatant) and in series [1] (30 μL 1x COS-1 supernatant) were 23.6 CPM × 10^3, 40.2 CPM × 10^3 and 54.4 CPM × 10^3, respectively. The “CPM Release × 10^3 (net counts), ATPase activity in CM” value in series [1] (10 μL unconcentrated COS-1 CM) is on record as 24.71 CPM × 10^3; in series [1] (20 μL unconcentrated COS-1 CM), 43.92 CPM × 10^3; in series [1] (30 μL unconcentrated COS-1 CM) it was 56.93 CPM × 10^3. Moreover, the “CPM Release × 10^3 (raw counts), ATPase activity in concentrated CM” value in series [2] amounted to 99.96 CPM × 10^3.

B2: chicken ovalbumin conjugated to Affigel beads (other, UniProt P01012 2-386, looked up)
chain: GSIGAASMEFCFDVFKELKVHHANENIFYCPIAIMSALAMVYLGAKDSTRTQINKVVRFDKLPGFGDSIEAQCGTSVNVHSSLRDILNQITKPNDVYSFSLASRLYAEERYPILPEYLQCVKELYRGGLEPINFQTAADQARELINSWVESQTNGIIRNVLQPSSVDSQTAMVLVNAIVFKGLWEKAFKDEDTQAMPFRVTEQESKPVQMMYQIGLFRVASMASEKMKILELPFASGTMSMLVLLPDEVSGLEQLESIINFEKLTEWTSSNVMEERKIKVYLPRMKMEEKYNLTSVLMAMGITDVFSSSANLSGISSAESLKISQAVHAAHAEINEAGREVVGSAEAGVDAASVSEEFRADHPFLFCIKHIATNAVLFFGRCVSP
notes: Control beads; also called ovalbumin-conjugated AG; ovalbumin-conjugated beads
As for B2, in series [3], the binding result was “no binding”.

B3: E174A mutant: CD39 mutant, Glutamate 174 replaced with alanine (protein, UniProt P49961 1-510, looked up, variant E174A)
Ectonucleoside triphosphate …: MEDTKESNVKTFCSKNILAILGFSSIIAVIALLAVGLTQNKALPENVKYGIVLDAGSSHTSLYIYKWPAEKENDTGVVHQVEECRVKGPGISKFVQKVNEIGIYLTDCMERAREVIPRSQHQETPVYLGATAGMRLLRMESEELADRVLDVVERSLSNYPFDFQGARIITGQEAGAYGWITINYLLGKFSQKTRWFSIVPYETNNQETFGALDLGGASTQVTFVPQNQTIESPDNALQFRLYGKDYNVYTHSFLCYGKDQALWQKLAKDIQVASNEILRDPCFHPGYKKVVNVSDLYKTPCTKRFEMTLPFQQFEIQGIGNYQQCHQSILELFNTSYCPYSQCAFNGIFLPPLQGDFGAFSAFYFVMKFLNLTSEKVSQEKVTEMMKKFCAQPWEEIKTSYAGVKEKYLSEYCFSGTYILSLLLQGYHFTADSWEHIHFIGKIQGSDAGWTLGYMLNLTNMIPAEQPLSTPLSHSTYVFLMVLFSLVLFTVAIIGLLIFHKPSYFWKDMV
As to B3, the “effect on platelet responsiveness” value in the series with platelets is “no effect on platelet responsiveness”. Moreover, in series [4], the “enzymatic activity of mutant” value is “completely devoid of enzymatic activity”.
